The record followed here is FireProtDB (doi:10.1021/bi00177a023).

Sequences and labels used below:
B1: Guanyl-specific ribonuclease T1, P00651 (parent)
chain: MMYSKLLTLTTLLLPTALALPSLVERACDYTCGSNCYSSSDVSTAQAAGYQLHEDGETVGSNSYPHKYNNYEGFDFSVSSPYYEWPILSSGDVYSGGSPGADRVVFNENNQLAGVITHTGASGNNFVECT

The first data set covers variants of B1. Conditions: Aspergillus oryzae (strain ATCC 42149 / RIB 40); pH 5; Thermal; DSC; Sodium borate-NaOH 10 mM; NaCl 80 mM; reversible: yes; structure 1RN1; whole UniProt chain shown.
Broadly, the Tm is the temperature at the midpoint of the melting transition. As for MMYSKLLTLTTLLLPTALALPSLVERACDYTCGSNCYSSSDVSTAQAAGYKLHEDGETVGSNSYPHKYNNYEGFDFSVSSPYYEWPILSSGDVYSGGSPGADRVVFNENNQLAGVITHTGASGNNFVECT [Q51K], the Tm came to 61.2 °C, the “heat capacity change of unfolding” value came out at 1.14 kcal/mol/K, the “unfolding enthalpy (calorimetric)” value stood at 508 kJ/mol and the “unfolding enthalpy (van 't Hoff)” value was determined as 480 kJ/mol.

Staying with this data set, now noted: Aspergillus oryzae (strain ATCC 42149 / RIB 40); pH 6; Thermal; DSC; Sodium borate-NaOH 10 mM; NaCl 80 mM; reversible: yes; structure 1RN1; whole UniProt chain shown.
Turning to MMYSKLLTLTTLLLPTALALPSLVERACDYTCGSNCYSSSDVSTAQAAGYKLHEDGETVGSNSYPHKYNNYEGFDFSVSSPYYEWPILSSGDVYSGGSPGADRVVFNENNQLAGVITHTGASGNNFVECT [Q51K], the Tm turned out to be 56.9 °C, the “heat capacity change of unfolding” value is 0.99 kcal/mol/K, the “unfolding enthalpy (calorimetric)” value was determined as 470 kJ/mol and the “unfolding enthalpy (van 't Hoff)” value worked out at 462 kJ/mol.

The same data set, now with this note: Aspergillus oryzae (strain ATCC 42149 / RIB 40); pH 6.5; Thermal; DSC; Sodium borate-NaOH 10 mM; NaCl 80 mM; reversible: yes; structure 1RN1; whole UniProt chain shown.
In the case of MMYSKLLTLTTLLLPTALALPSLVERACDYTCGSNCYSSSDVSTAQAAGYKLHEDGETVGSNSYPHKYNNYEGFDFSVSSPYYEWPILSSGDVYSGGSPGADRVVFNENNQLAGVITHTGASGNNFVECT [Q51K], the Tm turned out to be 54 °C, the “heat capacity change of unfolding” value is 1.19 kcal/mol/K, the “unfolding enthalpy (calorimetric)” value stood at 457 kJ/mol and the “unfolding enthalpy (van 't Hoff)” value was 454 kJ/mol.

The data set is the same for the next values; noted with them: Aspergillus oryzae (strain ATCC 42149 / RIB 40); pH 8.6; Thermal; DSC; Sodium borate-NaOH 10 mM; NaCl 80 mM; reversible: yes; structure 1RN1; whole UniProt chain shown.
Consider MMYSKLLTLTTLLLPTALALPSLVERACDYTCGSNCYSSSDVSTAQAAGYKLHEDGETVGSNSYPHKYNNYEGFDFSVSSPYYEWPILSSGDVYSGGSPGADRVVFNENNQLAGVITHTGASGNNFVECT [Q51K], for which the Tm was 46.6 °C, the “heat capacity change of unfolding” value amounted to 1.15 kcal/mol/K, the “unfolding enthalpy (calorimetric)” value came out at 408 kJ/mol and the “unfolding enthalpy (van 't Hoff)” value came out at 428 kJ/mol.

Still in this data set, the particulars now being: Aspergillus oryzae (strain ATCC 42149 / RIB 40); pH 9.7; Thermal; DSC; Sodium borate-NaOH 10 mM; NaCl 80 mM; reversible: yes; structure 1RN1; whole UniProt chain shown.
MMYSKLLTLTTLLLPTALALPSLVERACDYTCGSNCYSSSDVSTAQAAGYKLHEDGETVGSNSYPHKYNNYEGFDFSVSSPYYEWPILSSGDVYSGGSPGADRVVFNENNQLAGVITHTGASGNNFVECT [Q51K]: the Tm amounted to 44 °C, the “heat capacity change of unfolding” value was 1.38 kcal/mol/K, the “unfolding enthalpy (calorimetric)” value turned out to be 393 kJ/mol and the “unfolding enthalpy (van 't Hoff)” value is 439 kJ/mol.
